Seven molecules from patent US20160185837A1 (AstraZeneca / MedImmune, published 2016) can be followed below.

What all share (experiment): cell-based or functional assay
One test concerns the target human GLP-1 receptor (human, UniProt P43220 24-463).
The next test deals with human glucagon receptor (human, UniProt P47871 26-477).
A further test addresses T1, human GIP receptor (human, UniProt P48546 22-466).
T1 sequence (looked up): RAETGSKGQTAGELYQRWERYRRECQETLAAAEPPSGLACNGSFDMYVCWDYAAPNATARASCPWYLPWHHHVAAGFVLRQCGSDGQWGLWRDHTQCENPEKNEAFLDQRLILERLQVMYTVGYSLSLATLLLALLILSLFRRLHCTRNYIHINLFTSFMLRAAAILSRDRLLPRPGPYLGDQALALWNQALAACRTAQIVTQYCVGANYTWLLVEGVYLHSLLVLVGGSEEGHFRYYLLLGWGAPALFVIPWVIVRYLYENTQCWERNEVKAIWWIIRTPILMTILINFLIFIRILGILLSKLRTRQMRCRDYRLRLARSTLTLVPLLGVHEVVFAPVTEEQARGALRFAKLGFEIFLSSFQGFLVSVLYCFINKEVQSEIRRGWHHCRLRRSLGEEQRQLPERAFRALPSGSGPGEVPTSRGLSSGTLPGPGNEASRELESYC

Another test deals with T2, mouse GLP-1 receptor (mouse, UniProt O35659 22-463).
T2 sequence (looked up): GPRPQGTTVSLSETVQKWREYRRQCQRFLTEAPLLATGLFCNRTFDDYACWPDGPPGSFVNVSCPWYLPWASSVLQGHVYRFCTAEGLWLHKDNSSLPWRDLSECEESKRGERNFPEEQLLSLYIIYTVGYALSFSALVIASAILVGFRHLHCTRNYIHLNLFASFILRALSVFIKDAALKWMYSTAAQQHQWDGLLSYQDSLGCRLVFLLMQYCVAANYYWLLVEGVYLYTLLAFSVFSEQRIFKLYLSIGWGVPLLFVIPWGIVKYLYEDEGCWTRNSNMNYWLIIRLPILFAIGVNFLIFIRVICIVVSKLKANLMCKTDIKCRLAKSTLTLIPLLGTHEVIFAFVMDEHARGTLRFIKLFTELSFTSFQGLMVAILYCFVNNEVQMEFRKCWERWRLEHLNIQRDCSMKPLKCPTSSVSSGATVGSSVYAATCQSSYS

The target in another test is T3, mouse GIP receptor (mouse, UniProt Q0P543 19-460).
T3 sequence (looked up): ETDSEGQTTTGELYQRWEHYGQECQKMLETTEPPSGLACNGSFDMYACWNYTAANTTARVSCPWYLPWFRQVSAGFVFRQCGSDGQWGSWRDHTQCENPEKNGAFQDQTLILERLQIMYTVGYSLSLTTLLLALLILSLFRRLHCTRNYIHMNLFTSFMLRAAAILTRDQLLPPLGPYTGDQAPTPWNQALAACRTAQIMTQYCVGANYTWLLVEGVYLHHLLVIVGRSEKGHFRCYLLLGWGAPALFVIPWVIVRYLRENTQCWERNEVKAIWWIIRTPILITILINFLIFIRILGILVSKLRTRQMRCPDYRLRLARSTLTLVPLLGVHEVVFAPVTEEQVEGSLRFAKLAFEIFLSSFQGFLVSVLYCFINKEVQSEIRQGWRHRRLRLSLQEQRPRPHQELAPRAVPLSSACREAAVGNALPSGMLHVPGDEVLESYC

Another test concerns the target T4, rat GLP-1 receptor (rat, UniProt P32301 22-463).
T4 sequence (looked up): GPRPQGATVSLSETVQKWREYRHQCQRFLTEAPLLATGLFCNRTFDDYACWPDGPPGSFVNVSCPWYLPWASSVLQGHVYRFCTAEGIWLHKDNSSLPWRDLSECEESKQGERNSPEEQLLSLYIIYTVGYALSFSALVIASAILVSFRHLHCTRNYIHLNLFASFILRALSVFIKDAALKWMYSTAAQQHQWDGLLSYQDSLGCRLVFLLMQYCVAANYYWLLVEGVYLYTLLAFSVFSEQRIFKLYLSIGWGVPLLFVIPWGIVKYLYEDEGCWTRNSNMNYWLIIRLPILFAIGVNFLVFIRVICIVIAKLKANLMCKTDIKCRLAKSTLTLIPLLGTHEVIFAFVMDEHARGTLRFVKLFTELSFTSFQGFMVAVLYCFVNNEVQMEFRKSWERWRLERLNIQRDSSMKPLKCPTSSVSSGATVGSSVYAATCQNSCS

In a further test the target is T5, rat GIP receptor (rat, UniProt P43219 19-455).
T5 sequence (looked up): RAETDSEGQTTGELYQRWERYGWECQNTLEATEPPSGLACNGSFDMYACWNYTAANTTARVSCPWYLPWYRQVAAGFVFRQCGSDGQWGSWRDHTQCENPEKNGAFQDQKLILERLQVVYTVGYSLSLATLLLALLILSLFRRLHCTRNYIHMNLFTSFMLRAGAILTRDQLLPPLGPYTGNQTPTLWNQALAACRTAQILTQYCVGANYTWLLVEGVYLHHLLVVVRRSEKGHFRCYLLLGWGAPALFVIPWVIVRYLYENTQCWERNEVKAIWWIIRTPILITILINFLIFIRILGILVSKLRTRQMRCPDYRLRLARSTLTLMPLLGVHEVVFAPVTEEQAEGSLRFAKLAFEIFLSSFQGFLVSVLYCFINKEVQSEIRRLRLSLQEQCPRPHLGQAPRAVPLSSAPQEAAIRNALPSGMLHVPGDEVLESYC

B1: IP272 (Fc fusion)
chain: YSEGTFTSDYSKLLEEEAVRLFIEWLLAQKAPPGGSGSTASSGSGSATGGGGAATHTCPPC
Turning to B1, the “cAMP EC50” value was 0.53 nM with human GLP-1 receptor; 1700 nM with human glucagon receptor; 0.011 nM with human GIP receptor; 2.3 nM with mouse GLP-1 receptor; 11 nM with mouse GIP receptor; 0.085 nM in the test with rat GLP-1 receptor. The “cAMP EC50” value in the test with rat GIP receptor stood at 0.048 nM.

B2: IP273 (Fc fusion)
chain: YSEGTFTSDYSKLLEEEAVRLFIEWLVKGPAAAGGSGSTASSGSGSATGGGGAATHTCPPC
Consider B2, for which the “cAMP EC50” value was 0.1 nM in the test with human GLP-1 receptor; 670 nM with human glucagon receptor; 0.0084 nM in the test with human GIP receptor; 0.19 nM in the test with mouse GLP-1 receptor; 85 nM with mouse GIP receptor; 0.02 nM in the test with rat GLP-1 receptor. In the test with rat GIP receptor, the “cAMP EC50” value was 0.09 nM.

B3: IP200 (Fc fusion)
chain: YSQGTFTSDYSKILEEEAVRLFIEWLVKGPAAAGGSGSTASSGSGSATGGGGAATHTCPPCPAPEF
As to B3, the “cAMP EC50” value in the test with human GLP-1 receptor turned out to be 0.12 nM; in the test with human glucagon receptor, 0.11 nM; with human GIP receptor it was 0.018 nM. Further, the “cAMP EC50, Batch 2” value with human GLP-1 receptor worked out at 0.077 nM; with human glucagon receptor it was 0.083 nM; with human GIP receptor, 0.012 nM; in the test with mouse GLP-1 receptor, 0.34 nM; with mouse GIP receptor, 160 nM; with rat GLP-1 receptor it was 0.028 nM. Besides, the “cAMP EC50, Batch 2” value with rat GIP receptor amounted to 0.25 nM.

B4: IP267 (Fc fusion)
chain: YSEGTFTSDYSKLLEEEHVRLFIEWLVKGPGGGGGSGGGGSGGGGSGGGGSATHTCPPC
B4: the “cAMP EC50” value with human GLP-1 receptor is 1.5 nM; in the test with human glucagon receptor, 5800 nM; with human GIP receptor, 0.12 nM; in the test with mouse GLP-1 receptor it was 10 nM; in the test with mouse GIP receptor, over 278 nM; with rat GLP-1 receptor, 0.3 nM. The “cAMP EC50” value with rat GIP receptor worked out at 0.81 nM.

B5: IP268 (Fc fusion)
chain: YSEGTFTSDYSKLLEEEAVRLFIEWLVKGPGGGGGSGGGGSGGGGSGGGGSATHTCPPC
Take B5: the “cAMP EC50” value in the test with human GLP-1 receptor was 0.12 nM; in the test with human glucagon receptor it was 2900 nM; with human GIP receptor, 0.01 nM; with mouse GLP-1 receptor, 0.28 nM; with mouse GIP receptor it was 210 nM; with rat GLP-1 receptor it was 0.026 nM. In the test with rat GIP receptor, the “cAMP EC50” value was determined as 0.15 nM. In the test with human GIP receptor, the “cAMP EC50, hGIPr (C3) line” value is 3.8 nM.

B6: IP253 (Fc fusion)
chain: YSEGTFTSDYSKLLDEEAVRLFIEWLLAGAPPGGSGSTASSGSGSATGGGGAATHTCPPCPAPEF
Consider B6, for which the “cAMP EC50” value was 0.26 nM with human GLP-1 receptor; 78 nM with human glucagon receptor; 0.0093 nM with human GIP receptor; 3.8 nM in the test with mouse GLP-1 receptor; 0.61 nM with mouse GIP receptor; 0.21 nM in the test with rat GLP-1 receptor. The “cAMP EC50” value with rat GIP receptor turned out to be 0.024 nM.

B7: IP201 (Fc fusion)
chain: YSEGTFTSDYSKLLEEEAVRLFIEWLLAGPSSGAPPPSAAAGGSGSTASSGSGSATGGGGAATHTCPPCPAPEF
In the case of B7, the “cAMP EC50” value with human GLP-1 receptor stood at 0.2 nM; with human glucagon receptor, 3.9 nM; with human GIP receptor it was 0.011 nM; with mouse GLP-1 receptor, 0.65 nM; with mouse GIP receptor, 4.3 nM; with rat GLP-1 receptor, 0.098 nM. Moreover, the “cAMP EC50” value in the test with rat GIP receptor was found to be 0.23 nM. The “cAMP EC50, Batch 2” value is 0.56 nM with human GLP-1 receptor; 11 nM in the test with human glucagon receptor; 0.034 nM in the test with human GIP receptor; 0.41 nM in the test with mouse GLP-1 receptor; 1.6 nM in the test with mouse GIP receptor; 0.028 nM in the test with rat GLP-1 receptor. In addition, the “cAMP EC50, Batch 2” value with rat GIP receptor was determined as 0.019 nM.
